The results in this text go back to patent US20080125498A1, “TREATMENT OF NEURODEGENERATIVE DISEASES AND CONDITIONS USING PAR1 ANTAGONISTS” (priority 2001, published 2008).

Holding throughout (test): cell-based or functional assay
One assay has as its target alpha-thrombin.
Assay [1] addresses protease-activated receptor 1 (PAR1), rat, endogenous in hippocampal neurons (rat) (UniProt P26824).
Assay [2] has as its target recombinant NR1 subunit in NR1/NR2A and NR1/NR2B NMDA receptors expressed in Xenopus oocytes.

protease-activated receptor 1 (PAR1), rat, endogenous in hippocampal neurons (rat), sequence (P26824 46-432): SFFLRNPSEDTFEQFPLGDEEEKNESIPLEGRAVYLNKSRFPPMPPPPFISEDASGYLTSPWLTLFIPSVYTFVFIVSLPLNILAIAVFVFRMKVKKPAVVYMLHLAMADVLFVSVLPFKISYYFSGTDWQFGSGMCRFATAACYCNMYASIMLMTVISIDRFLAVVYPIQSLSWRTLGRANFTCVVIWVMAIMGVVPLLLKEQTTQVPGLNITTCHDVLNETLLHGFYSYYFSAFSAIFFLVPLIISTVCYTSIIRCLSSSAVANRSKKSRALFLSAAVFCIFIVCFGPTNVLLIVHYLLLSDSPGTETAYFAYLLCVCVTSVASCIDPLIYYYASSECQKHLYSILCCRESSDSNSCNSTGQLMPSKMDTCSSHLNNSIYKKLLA

Regarding hirudin, the potentiation by thrombin of NMDA responses in the presence of hirudin in the assay with alpha-thrombin was determined as 0.96 fold.

Turning to alpha-thrombin (enzyme), in assay [1], the average peak potentiation of NMDA responses in CA1 pyramidal cells at -40 mV in 1.4 mM Mg2+ came to 1.48 fold, the average peak potentiation of NMDA responses in CA1 pyramidal cells at -70 mV in 1.4 mM Mg2+ is 2.1 fold and the peak potentiation of NMDA responses at -70 mV in CA1 pyramidal neurons stood at 2.07 fold. For the same substance, in assay [2], the NMDA receptor current response amplitude in oocytes after 300-1000 nM thrombin for 60 minutes was determined as 42%.
